Data on 68 substances can be found in patent US20220289816A1, “IMMUNOTHERAPY WITH B*07 RESTRICTED PEPTIDES AND COMBINATION OF PEPTIDES AGAINST CANCERS AND RELATED METHODS” (Immatics Biotechnologies GmbH, priority 2018, published 2022).

In this assay the target is HLA-B*07 (Homo sapiens, UniProt P01889). As to the kind of experiment: MHC binding assay (UV-ligand exchange, ELISA of stabilized MHC complexes). The note with it: peptide exchange yield on HLA-B*07, UV-ligand exchange. The source says:
Candidate peptides for T cell based therapies according to the present invention were further tested for their MHC binding capacity (affinity). The individual peptide-MHC complexes were produced by UV-ligand exchange, where a UV-sensitive peptide is cleaved upon UV-irradiation and exchanged with the peptide of interest as analyzed. Only peptide candidates that can effectively bind and stabilize the peptide-receptive MHC molecules prevent dissociation of the MHC complexes. To determine the yield of the exchange reaction, an ELISA was performed based on the detection of the light chain (β2m) of stabilized MHC complexes. The assay was performed as generally described in Rodenko et al. (Rodenko et al., 2006)
96 well MAXISorp plates (NUNC) were coated over night with 2 ug/ml streptavidin in PBS at room temperature, washed 4× and blocked for 1 h at 37° C. in 2% BSA containing blocking buffer. […] Peptide-MHC monomers of the UV-exchange reaction were diluted 100-fold in blocking buffer. Samples were incubated for 1 h at 37° C., washed four times, incubated with 2 ug/ml HRP conjugated anti-[…] for 1 h at 37° C., washed again and detected with TMB solution that is stopped with […]. Absorption was measured at 450 nm. Candidate peptides that show a high exchange yield (preferably higher than 50%, most preferred higher than 75%) are generally preferred for a generation and production of antibodies or fragments thereof, and/or T cell receptors or fragments thereof, as they show sufficient avidity to the MHC molecules and prevent dissociation of the MHC complexes.
On the technique in general: ELISA stands for enzyme-linked immunosorbent assay.
Consider “2 (VPGSDPARYEFL; listed as Homo sapiens) [compound 2]”, for which the Peptide exchange entry is listed as “+++ (>50 = +++)”.
Under “7 (RPSQLAPATL; listed as Homo sapiens) [compound 7]” stands “+++ (>50 = +++)”; under “8 (MPKTNLSKM; listed as Homo sapiens) [compound 8]”, “+++ (>50 = +++)”; under “10 (SPMEAELVRRIL; listed as Homo sapiens) [compound 10]”, “++++ (>75% = ++++)”.
Under “11 (APLPRPGAV; listed as Homo sapiens) [compound 11]” stands “++++ (>75% = ++++)”; under “13 (LPNTGRIGQL; listed as Homo sapiens) [compound 13]”, “+++ (>50 = +++)”; under “14 (AVHEIGHSL; listed as Homo sapiens) [compound 14]”, “+++ (>50 = +++)”.
Under “15 (KPGFNISIL; listed as Homo sapiens) [compound 15]” stands “++++ (>75% = ++++)”; under “16 (FPAPPAHWF; listed as Homo sapiens) [compound 16]”, “++++ (>75% = ++++)”.
Turning to “18 (MALSVLRLAL; listed as Homo sapiens) [compound 18]”, the Peptide exchange entry is given as “++ (>20% = ++)”.
Under “19 (WPRLPGAGL; listed as Homo sapiens) [compound 19]” stands “+++ (>50 = +++)”; under “20 (MVLGIGPVL; listed as Homo sapiens) [compound 20]”, “++++ (>75% = ++++)”.
Under “22 (LPQLKPAL; listed as Homo sapiens) [compound 22]” stands “++++ (>75% = ++++)”; under “25 (RPQGAVGGL; listed as Homo sapiens) [compound 25]”, “+++ (>50 = +++)”; under “27 (RIRVTSEVL; listed as Homo sapiens) [compound 27]”, “+++ (>50 = +++)”.
Under “28 (LPAPTSLVL; listed as Homo sapiens) [compound 28]” stands “++++ (>75% = ++++)”; under “29 (APLRVHITSL; listed as Homo sapiens) [compound 29]”, “++++ (>75% = ++++)”; under “30 (YPGFTKRL; listed as Homo sapiens) [compound 30]”, “+++ (>50 = +++)”.
Regarding “31 (RPGPSDPAA; listed as Homo sapiens) [compound 31]”, the Peptide exchange result is listed as “+++ (>50 = +++)”.
The value for “32 (APMAPGRSPL; listed as Homo sapiens) [compound 32]” was “++++ (>75% = ++++)”.
Under “34 (APMAPGRSP; listed as Homo sapiens) [compound 34]” stands “+++ (>50 = +++)”; under “35 (APLPPPRAL; listed as Homo sapiens) [compound 35]”, “+++ (>50 = +++)”; under “36 (RPFSREMDL; listed as Homo sapiens) [compound 36]”, “+++ (>50 = +++)”.
Under “37 (LPPPRALTL; listed as Homo sapiens) [compound 37]” stands “+++ (>50 = +++)”; under “39 (QPRPSSEKI; listed as Homo sapiens) [compound 39]”, “+++ (>50 = +++)”.
“40 (FPRTVKHIDAAL; listed as Homo sapiens) [compound 40]”: the Peptide exchange entry is recorded as “++++ (>75% = ++++)”.
With “41 (MPAGGGPRSL; listed as Homo sapiens) [compound 41]”, the Peptide exchange result is “++++ (>75% = ++++)”.
Under “42 (APLKMLAL; listed as Homo sapiens) [compound 42]” stands “++++ (>75% = ++++)”; under “43 (APTPRPKVL; listed as Homo sapiens) [compound 43]”, “++++ (>75% = ++++)”; under “44 (SPSQTVQRAV; listed as Homo sapiens) [compound 44]”, “++++ (>75% = ++++)”.
Under “46 (QPISGNPVTL; listed as Homo sapiens) [compound 46]” stands “+++ (>50 = +++)”.
Under “47 (RPRQTGALM; listed as Homo sapiens) [compound 47]” stands “++++ (>75% = ++++)”; under “50 (PEKARAFL; listed as Homo sapiens) [compound 50]”, “+++ (>50 = +++)”; under “52 (KEDNPSGHTYTL; listed as Homo sapiens) [compound 52]”, “+++ (>50 = +++)”.
For “54 (VPSCGRSVEGL; listed as Homo sapiens) [compound 54]”, the Peptide exchange result was “+++ (>50 = +++)”.
As for “60 (RPYSIYPHGVTF; listed as Homo sapiens) [compound 60]”, the Peptide exchange entry is “++++ (>75% = ++++)”.
Under “62 (KPQSTISGL; listed as Homo sapiens) [compound 62]” stands “+++ (>50 = +++)”; under “63 (FPHMATTAF; listed as Homo sapiens) [compound 63]”, “+++ (>50 = +++)”; under “65 (FPNVYSTLVL; listed as Homo sapiens) [compound 65]”, “++++ (>75% = ++++)”.
Under “66 (LPMTVISVL; listed as Homo sapiens) [compound 66]” stands “++++ (>75% = ++++)”.
In the case of “67 (VPVSRPVL; listed as Homo sapiens) [compound 67]”, the Peptide exchange entry is given as “++++ (>75% = ++++)”.
The value for “69 (RPEDGRPRL; listed as Homo sapiens) [compound 69]” was “+++ (>50 = +++)”; that for “70 (VPAQRLGLL; listed as Homo sapiens) [compound 70]” was “++++ (>75% = ++++)”.
Under “71 (APFAPLHGGGSL; listed as Homo sapiens) [compound 71]” stands “+++ (>50 = +++)”.
As to “72 (APCNGNVAV; listed as Homo sapiens) [compound 72]”, the Peptide exchange entry is listed as “+++ (>50 = +++)”.
With “73 (LPVSSPVTL; listed as Homo sapiens) [compound 73]”, the Peptide exchange entry is “++++ (>75% = ++++)”.
Under “74 (VPVSHPVL; listed as Homo sapiens) [compound 74]” stands “++++ (>75% = ++++)”; under “75 (HVRPQTNCI; listed as Homo sapiens) [compound 75]”, “+++ (>50 = +++)”; under “76 (KPKVESQAL; listed as Homo sapiens) [compound 76]”, “++++ (>75% = ++++)”.
Consider “77 (QPRLVPGETL; listed as Homo sapiens) [compound 77]”, for which the Peptide exchange result is “++++ (>75% = ++++)”.
Under “78 (HPSQESPTL; listed as Homo sapiens) [compound 78]” stands “+++ (>50 = +++)”; under “79 (GPASDHPSL; listed as Homo sapiens) [compound 79]”, “+++ (>50 = +++)”.
Turning to “80 (SALPTTISF; listed as Homo sapiens) [compound 80]”, the Peptide exchange entry is on record as “+++ (>50 = +++)”.
Consider “81 (IAYPSLREAAL; listed as Homo sapiens) [compound 81]”, for which the Peptide exchange result is given as “++ (>20% = ++)”.
For “83 (AVSSHHNVI; listed as Homo sapiens) [compound 83]”, the Peptide exchange entry is on record as “++ (>20% = ++)”.
The value for “84 (MPMQDIKMI; listed as Homo sapiens) [compound 84]” was “+++ (>50 = +++)”; that for “85 (MPMQDIKMILKM; listed as Homo sapiens) [compound 85]” was “+++ (>50 = +++)”; that for “86 (ALLLRGVTL; listed as Homo sapiens) [compound 86]” was “++ (>20% = ++)”.
Under “87 (APVGGNVTSSF; listed as Homo sapiens) [compound 87]” stands “+++ (>50 = +++)”.
Under “88 (KPSAVKDSIY; listed as Homo sapiens) [compound 88]” stands “++ (>20% = ++)”; under “89 (FLIPRAGWLAGL; listed as Homo sapiens) [compound 89]”, “++ (>20% = ++)”; under “91 (FPRLVGPDFF; listed as Homo sapiens) [compound 91]”, “++++ (>75% = ++++)”.
For the substance “92 (TSPLPPTV; listed as Homo sapiens) [compound 92]”, the Peptide exchange result is listed as “+++ (>50 = +++)”.
The value for “93 (SVAIAHGVF; listed as Homo sapiens) [compound 93]” was “++++ (>75% = ++++)”; that for “94 (LPMSKRQEY; listed as Homo sapiens) [compound 94]” was “+++ (>50 = +++)”.
Consider “95 (RTKEEINEL; listed as Homo sapiens) [compound 95]”, for which the Peptide exchange entry is “++ (>20% = ++)”.
As for “96 (QPSLVQAIF; listed as Homo sapiens) [compound 96]”, the Peptide exchange result is reported as “++++ (>75% = ++++)”.
Under “98 (FPCSALLACF; listed as Homo sapiens) [compound 98]” stands “++++ (>75% = ++++)”.
